Test [1] has as its target recombinant γN308K fibrinogen (UniProt P02671). The test can be described thus: plasmin protection assay.
Test [2] addresses normal recombinant fibrinogen (UniProt P02671). The test can be described thus: plasmin protection assay.

One molecule from PMC2956063 can be followed below.

Where no end group is shown, it is not given here.

Take GPRP-NH2 [GPRP-amide]: in test [1], the GPRP concentration at which fragment D1 was readily evident turned out to be 0.5 mM, the GPRP concentration of full protection was over 20 mM and the fold weaker than normal fibrinogen is 10 fold. Also, the GPRP concentration of full protection in test [2] stood at 5 mM.
